In article PMC4370635, “ARF6 Promotes the Formation of Rac1 and WAVE-Dependent Ventral F-Actin Rosettes in Breast Cancer Cells in Response to Epidermal Growth Factor” (PLoS ONE, 2015):

Biological target: T1, GST fused with the ARF6-binding domain (LZII, leucine zipper II domain) of human JIP3 (aa 371-507) (human, UniProt Q9UPT6 371-507)
T1 construct: JIP3, human, residues 371-507 (LZII, leucine zipper II domain); also called GST-LZII; LZII domain of human JIP3; source: pGEX construct, purified as described [35]; not shown: GST, N-terminal, kept
T1 sequence (looked up): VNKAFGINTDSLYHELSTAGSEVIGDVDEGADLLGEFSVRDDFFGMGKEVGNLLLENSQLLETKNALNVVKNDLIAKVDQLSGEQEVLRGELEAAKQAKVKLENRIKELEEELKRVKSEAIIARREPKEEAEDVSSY
Experiment: pull-down; GST-LZII (37 ug/reaction) incubated with cleared MDA-MB-231 cell lysates for 15 min at 4°C with 0.5% BSA, then glutathione-Sepharose beads for 1 h at 4°C; lysis buffer 50 mM Tris pH 7.4, 137 mM NaCl, 10 mM MgCl2, 10% glycerol, 1% Triton-X100; bound proteins immunoblotted with anti-ARF6 monoclonal antibody
Conditions: one partner purified

B1: ARF6T157N (natural protein, UniProt P62330 1-175, looked up)
chain: MGKVLSKIFGNKEMRILMLGLDAAGKTTILYKLKLGQSVTTIPTVGFNVETVTYKNVKFNVWDVGGQDKIRPLWRHYYTGTQGLIFVVDCADRDRIDEARQELHRIINDREMRDAIILIFANKQDLPDAMKPHEIQEKLGLTRIRDRNWYVQPSCANSGDGLYEGLTWLTSNYKS
notes: ADP-ribosylation factor 6 (ARF6), fast-cycling mutant T157N; also called fast-cycling mutant of ARF6; ARF6T15TN
fold increase in GTP-ARF6 pulled down, against parental MDA-MB-231 cells: ~4 fold
